Among the data in patent US20200308277A1 are change in RU values, retold here.

For assay [1], the target named is huTIM-3/his (human) (UniProt Q8TDQ0). Nature of the assay: SPR (Biacore) competition; 2nd antibody injection after 1st antibody huIgG1 (competitor). (SPR reads the build-up and loss of mass on a sensor chip optically.)
For assay [2] the target is unchanged. As to the kind of experiment: SPR (Biacore) competition, hTIM-3/his captured by anti-His antibody; 1st antibody injection.
Assay [3] has the same target. As to the kind of experiment: SPR (Biacore) competition; 2nd antibody injection after 1st antibody ABTIM3-hum03 (competitor).
Assay [4] shares this target. As to the kind of experiment: SPR (Biacore) competition; 2nd antibody injection after 1st antibody ABTIM3-hum11 (competitor).
Assay [5] shares this target. Nature of the assay: SPR (Biacore) competition; 2nd antibody injection after 1st antibody ABTIM3-hum21 (competitor).

huTIM-3/his (human), sequence (Q8TDQ0 22-202 limits assumed): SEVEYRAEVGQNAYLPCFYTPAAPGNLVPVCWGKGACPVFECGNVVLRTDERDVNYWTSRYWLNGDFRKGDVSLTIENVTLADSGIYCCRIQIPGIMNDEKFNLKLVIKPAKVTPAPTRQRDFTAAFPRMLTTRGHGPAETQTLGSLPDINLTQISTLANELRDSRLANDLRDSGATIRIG

As to huIgG1 (antibody), the change in RU with huTIM-3/his (human) [1] is 3.6 RU; in the assay with huTIM-3/his (human) [2] it was 0.27 RU; with huTIM-3/his (human) [3], 4.5 RU; in the assay with huTIM-3/his (human) [4] it was 3.8 RU; with huTIM-3/his (human) [5] it was 4.5 RU.
